Results from article doi:10.1101/2023.06.13.544862.

Assays:
[1] = target: EED labelled for microscale thermophoresis (human) (UniProt O75530); assay: MST
[2] = target: JMJD3 JmjC domain labelled for microscale thermophoresis (UniProt O15054); assay: MST
JMJD3 JmjC domain labelled for microscale thermophoresis, sequence (O15054 1339-1502): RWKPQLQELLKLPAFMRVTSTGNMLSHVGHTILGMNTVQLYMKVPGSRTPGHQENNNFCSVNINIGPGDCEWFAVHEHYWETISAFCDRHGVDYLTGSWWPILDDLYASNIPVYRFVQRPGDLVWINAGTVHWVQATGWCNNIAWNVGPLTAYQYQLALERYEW

EED labelled for microscale thermophoresis (human), sequence (O75530 whole entry, the tested form may be a part): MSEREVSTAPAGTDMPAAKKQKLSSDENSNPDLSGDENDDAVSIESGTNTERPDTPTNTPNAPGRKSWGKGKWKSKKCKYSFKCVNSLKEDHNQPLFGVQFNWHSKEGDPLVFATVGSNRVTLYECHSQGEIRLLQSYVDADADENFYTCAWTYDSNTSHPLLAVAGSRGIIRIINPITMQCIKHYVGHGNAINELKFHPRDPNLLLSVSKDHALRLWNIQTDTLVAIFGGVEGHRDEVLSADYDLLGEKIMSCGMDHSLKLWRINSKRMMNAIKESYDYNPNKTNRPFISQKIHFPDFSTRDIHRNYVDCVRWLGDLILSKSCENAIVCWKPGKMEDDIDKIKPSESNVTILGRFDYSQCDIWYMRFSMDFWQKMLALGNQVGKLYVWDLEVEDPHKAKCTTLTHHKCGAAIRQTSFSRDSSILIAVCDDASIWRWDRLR

Row | Substance | Kd [1] | Kd [2]
1 | NOP16 aa 25-32 peptide, tri-methylated K29 (from UniProt Q9Y3C1 25-32) | 1.21 µM | 
2 | NOP16 aa 25-32 peptide, mono-methylated K29 (from UniProt Q9Y3C1 25-32) | 100 µM | 
3 | H3K27me3 peptide | 0.95 µM | 8.59 µM

Second part, the substance after the results:

Row | Kd [1] | Kd [2] | Substance
4 | 11.6 µM |  | NOP16 aa 25-32 peptide, unmethylated K29 (from UniProt Q9Y3C1 25-32)
5 | 131 µM |  | NOP16 aa 25-32 peptide, di-methylated K29 (from UniProt Q9Y3C1 25-32)
